# Results from PMC8534798, “Foxd4l1.1 Negatively Regulates Chordin Transcription in Neuroectoderm of Xenopus Gastrula” (Cells, 2021).
# B1: Flag-Foxd4l1.1 (natural protein, Xenopus, UniProt Q9PRJ8 1-352, looked up)
# chain: MSFSQESGAHHHPQDYAGLSDEEDEIDILGEDDPCSLKSHFYLQPTHSVMGDSEMLSPSKLSCTESESDSSGESEGGTSKDSSTTPTGSKAKRTLVKPPYSYIALITMAILQSPHKKLTLSGICDFISSKFPYYKDKFPAWQNSIRHNLSLNDCFIKIPREPGNPGKGNYWTLDPASEDMFDNGSFLRRRKRFKRHQQEFFKDGLMMYNSLPYYRPYSAIQPQPVLQQTSLTCMAIPETLPMSTHLAPYPDIKRKVSYPAQGVHRGFKAQDADNHPNNSQSKCSFSIENIMRKPKEPEPNIQSFNSHWNYNHVFQRPSSCLLPAVLNLSTGPLLANTQGARQYNLIQFPGCY
# Tests used:
# [1] = molecular target: HA-Smad2 (wild type) (human, UniProt Q15796 1-467); assay: cell-based or functional assay
# Chain of HA-Smad2 (wild type) (Q15796 whole entry): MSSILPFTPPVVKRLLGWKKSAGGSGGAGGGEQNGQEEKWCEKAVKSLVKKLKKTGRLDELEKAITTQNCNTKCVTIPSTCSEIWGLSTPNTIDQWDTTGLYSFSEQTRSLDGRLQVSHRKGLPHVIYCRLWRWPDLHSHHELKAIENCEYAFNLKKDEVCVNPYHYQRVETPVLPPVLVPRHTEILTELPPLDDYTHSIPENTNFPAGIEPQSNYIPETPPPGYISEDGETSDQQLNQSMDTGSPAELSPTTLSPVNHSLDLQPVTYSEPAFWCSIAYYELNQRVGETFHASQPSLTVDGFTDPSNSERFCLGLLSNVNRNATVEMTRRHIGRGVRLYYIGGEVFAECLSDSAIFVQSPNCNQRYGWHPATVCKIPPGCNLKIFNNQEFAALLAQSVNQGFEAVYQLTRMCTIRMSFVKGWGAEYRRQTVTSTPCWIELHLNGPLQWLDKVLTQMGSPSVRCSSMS
# [2] = molecular target: HA-Smad3 (wild type) (human, UniProt P84022 1-425); assay: cell-based or functional assay
# Chain of HA-Smad3 (wild type) (P84022 whole entry): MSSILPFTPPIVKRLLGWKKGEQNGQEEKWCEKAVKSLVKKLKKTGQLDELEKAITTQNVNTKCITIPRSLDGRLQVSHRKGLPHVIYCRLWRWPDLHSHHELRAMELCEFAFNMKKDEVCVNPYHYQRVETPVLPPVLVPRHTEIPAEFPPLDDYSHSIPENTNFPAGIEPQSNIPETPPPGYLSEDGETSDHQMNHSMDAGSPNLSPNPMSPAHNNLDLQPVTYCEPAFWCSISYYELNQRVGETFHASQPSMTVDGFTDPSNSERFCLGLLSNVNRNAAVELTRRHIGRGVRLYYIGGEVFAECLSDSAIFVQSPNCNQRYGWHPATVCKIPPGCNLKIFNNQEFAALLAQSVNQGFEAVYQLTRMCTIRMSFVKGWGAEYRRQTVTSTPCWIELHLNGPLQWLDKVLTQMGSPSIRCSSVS
binder,measurement,setting,value
B1,ChIP-qPCR: occupancy of HA-Smad2 on the AREs of the chrd promoter without and with co-injected Flag-Foxd4l1.1 (fold enrichment),[1],7.3 fold
same,ChIP-qPCR: occupancy of HA-Smad3 on the AREs of the chrd promoter without and with co-injected Flag-Foxd4l1.1 (fold enrichment),[2],4.02 fold
